Assay results: patent publication US20240409629A1

Biological target: human CLDN18.1 (human) (UniProt P56856)
Experiment: FACS, U2OS-CLDN18.1 cells, antibody at 200 nM

B1: IgG1 isotype control antibody (antibody, V domains shown)
VH: EVQLEQSGAELMKPGASVKISCKATGYTFTTYWIEWIKQRPGHSLEWIGEILPGSDSTYYNEKVKGKVTFTADASSNTAYMQLSSLTSEDSAVYYCARGDGFYVYWGQGTTLTVSS
VL: DIELTQSPATLSVTPGDSVSLSCRASQSISNNLHWYQQKSHESPRLLIKYTSQSMSGIPSRFSGSGSGTDFTLSINSVETEDFGVYFCQQSGSWPRTFGGGTKLDIKR
MFI: 6040
